Here are results for three molecules from patent US8729012, “Controllable assembly and disassembly of nanoparticle systems via protein and DNA agents” (Brookhaven Science Associates, LLC).

Series [1] has as its target T1, YieF (UniProt P0AGE6 P0AGE6:1-188).
T1 sequence: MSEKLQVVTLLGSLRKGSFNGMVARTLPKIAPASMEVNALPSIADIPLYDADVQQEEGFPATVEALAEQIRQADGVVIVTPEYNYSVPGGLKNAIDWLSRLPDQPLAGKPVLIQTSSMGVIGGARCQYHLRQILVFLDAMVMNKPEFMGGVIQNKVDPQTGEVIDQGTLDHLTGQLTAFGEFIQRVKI
In words: negative control, no aggregation by DLS (2.5 uM) or UV-vis (15 uM). The settings on record: tags: polyhistidine. How it is done:
(§1) The SP band is associated with isolated Au and assembled nanostructures. After adding increased g5p concentrations, the SP band at 525 nm of isolated ssDNA-Au was red-shifted with band broadening, indicative of either a decrease in interparticle distances or an increase of aggregate size (FIG. 7B). The higher extinction intensity observed over 10 μM g5p is due to a […] of the solution's turbidity resulting from the formation of larger aggregates. […] The sizes and morphologies of the g5p-mediated ssDNA-Au assemblies were studied using transmission electron microscopy (TEM) (FIG. 7C). […] Polyhistidine-tagged YieF protein (MW=20 KDa) was used as a negative control, for which no aggregation of particles was observed during DLS and UV-vis studies (FIGS. 8A and 8B).
(§2) The DNA for the binding study was obtained by annealing of two ssDNA with sequences, 5'-GACCACATACCGCAC-CATC(T)$32$CTGCTACGAGACTTC-3' (SEQ ID NO. 7) and 5'-(T)$32$GATGGTGCGGTATGTGGTC-3' (SEQ ID NO. 8), respectively. The annealed DNA (1 µM) was incubated with g5p at 37° C. for 10 minutes. […] Relative intensities of the DNA bands were analyzed after ethidium bromide staining Characterization UV-Visible spectra were obtained using a PerkinElmer Lambda 35 spectrometer. DLS was measured using a Malvern Zetasizer ZS instrument that is equipped with a 633 nm laser and a backscattering detector at 173°. […]

Series [2] deals with T2, gene 5 protein (g5p) (bacteriophage M13, UniProt P69544 P69544:1-87).
T2 sequence: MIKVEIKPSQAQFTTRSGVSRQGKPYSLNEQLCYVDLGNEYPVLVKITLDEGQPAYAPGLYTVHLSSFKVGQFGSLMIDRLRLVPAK
In words: g5p-dependent nanoparticle assembly by DLS, UV-vis, TEM; 10 mM Tris-HCl pH 7.44, 200 mM NaCl. The settings on record: tags: His-tag (pET-30b, expressed in E. coli BL21-DE3; gene from NEB M13); chain copies: 2 inferred (homodimer). As for the experimental part: as §1, §2

Series [3] has as its target T2, gene 5 protein (g5p). Kind of series: EMSA; three sequential stages: anti-parallel ssDNA region shifted at 10 uM g5p, then ssDNA tail, then dsDNA over 35 uM; 1 uM DNA, 10 mM Tris-HCl pH 7.4, 200 mM NaCl. The conditions noted are these: tags: His-tag (pET-30b, expressed in E. coli BL21-DE3; gene from NEB M13); chain copies: 2 inferred (homodimer); 19 bp duplex, two anti-parallel T32 single strands, 3' ssDNA tail of 15 nt. As for the experimental part:
To study the distinct binding properties of g5p and its preferential DNA topology, an exemplary DNA structure with three distinct regions has been designed: a 19 base paired double-stranded DNA (dsDNA) region, followed by a 32 nucleotide anti-parallel poly-T ssDNA region, and a 3' extended ssDNA tail of 15 nucleotides. The DNA structure ([…]) was titrated with g5p (in 10 mM Tris-HCl, pH=7.4, 200 mM NaCl), and g5p binding was studied using the electrophoretic mobility shift assay. […] Since g5p has a much lower affinity to dsDNA than to ssDNA at high salt concentration, the following order of occupancy is hypothesized: binding to the anti-parallel ssDNA region with a large shift of the DNA band at 10 μM g5p, followed by binding to the ssDNA tail, and finally to dsDNA at g5p concentrations over 35 μM. Thus, g5p binds to ssDNA regions before it binds to the dsDNA region, and its binding affinity for the anti-parallel region is slightly higher than for the ssDNA tail. […] By comparing the intensity of the band in the presence of 30 μM g5p to the band under control conditions without g5p, the hybridization efficiency for C-ssDNA to the g5p-complexed ssDNA tail was determined to be approximately 82%, indicating effective DNA hybridization without significant inhibition by g5p. […]

Series [4] deals with T2, gene 5 protein (g5p). In words: EMSA; C-ssDNA added to the complex; 20 and 30 uM g5p shifts collapse to one band of higher mobility (anti-parallel region bound); tail hybridization about 82% at 30 uM g5p. The conditions noted are these: tags: His-tag (pET-30b, expressed in E. coli BL21-DE3; gene from NEB M13); chain copies: 2 inferred (homodimer); 19 bp duplex, anti-parallel T32 strands, tail hybridized as 15 bp duplex. How it is done:
Since g5p has a much lower affinity to dsDNA than to ssDNA at high salt concentration, the following order of occupancy is hypothesized: binding to the anti-parallel ssDNA region with a large shift of the DNA band at 10 μM g5p, followed by binding to the ssDNA tail, and finally to dsDNA at g5p concentrations over 35 μM. Thus, g5p binds to ssDNA regions before it binds to the dsDNA region, and its binding affinity for the anti-parallel region is slightly higher than for the ssDNA tail. To study the effect of g5p association on forming dsDNA heteroduplexes, and confirm the proposed binding order to the ssDNA regions, an equal amount (1 μM) of C-ssDNA that can hybridize to the ssDNA tail was added. […] Smearing of the band after C-ssDNA addition at 45 μM g5p supports g5p binding to dsDNA at this concentration. […]
The DNA for the binding study was obtained by annealing of two ssDNA with sequences, 5'-GACCACATACCGCAC-CATC(T)$32$CTGCTACGAGACTTC-3' (SEQ ID NO. 7) and 5'-(T)$32$GATGGTGCGGTATGTGGTC-3' (SEQ ID NO. 8), respectively. […] Relative intensities of the DNA bands were analyzed after ethidium bromide staining Characterization UV-Visible spectra were obtained using a PerkinElmer Lambda 35 spectrometer. DLS was measured using a Malvern Zetasizer ZS instrument that is equipped with a 633 nm laser and a backscattering detector at 173°.

On to TTTTTTTTTTTTTTTTAACCTAACCTTCAT (ssDNA, 5'-HS-C3H6, about 50 copies per gold nanoparticle) [ssDNA on gold nanoparticles (ssDNA-Au)], for which the results for the binding result in series [1] and in series [2] were “no binding” and “binds”, respectively.

B1: annealed 19 bp dsDNA / anti-parallel poly-T32 / 15 nt ssDNA tail (structured_DNA)
DNA 1: GACCACATACCGCACCATCTTTTTTTTTTTTTTTTTTTTTTTTTTTTTTTTCTGCTACGAGACTTC
DNA 2: TTTTTTTTTTTTTTTTTTTTTTTTTTTTTTTTGATGGTGCGGTATGTGGTC
With B1, in series [3], the binding result is on record as “binds”.

B2: annealed DNA with tail hybridized to C-ssDNA (structured_DNA)
DNA 1: B1 DNA 1
DNA 2: B1 DNA 2
DNA 3: GAAGTCTCGTAGCAG
With B2, the binding result in series [4] is “binds”.
